Source: the MegaScale stability set (Tsuboyama et al. 2023)

B1: 1ZHC (parent)
chain: HEFRDEISVLKANNPHFDKIFEKHNQLDDDIKTAEQQNASDAEVSHMKKQKLKLKDEIHSMIIEYREK
B2: EEHEE_rd3_1049 (parent)
chain: TTVKLGDIKVTFDNPEKAKKYAQKLAKIYQLTVHVHGDTIHVK

Variants of: B1
Assay: folding stability dG (cDNA display proteolysis); higher = more stable
Settings: PBS, room temperature

Folding stability dG [kJ/mol] of substitutions, site by site:
V9: F 8.57 | L 5.16 | T 2.13 | A 4.84 | S 3.45 | C 7.99 | M 4.48 | I 4.45 | K 5.74 | N 3.77 | D 2.08 | W 10.3 | H 6.24 | G 1.74 | Q 4.41 | R 4.23 | E 3.9
K11: P -3.45 | L 4.46 | V 0.347 | W -0.218 | A 1.29 | C 4.4 | D -4.04 | T -0.243 | M 2.58 | Y -1.4 | S 0.707 | R 8.19 | Q 2.47 | F 0.736 | G -2.39 | I 3.51
H1: N 3.49 | I 3.93 | E 5.16 | G 3.5 | Y 3.05 | S 4.33 | P 2.08 | V 3.21 | K 3.58 | D 5.34 | F 4.41 | M 4.64 | W 5.61 | T 3.58 | A 3.66 | L 4.69 | Q 3.29 | R 3.47
A12: R 4.11 | Y 2.64 | K 4.46 | L 1.24 | W -2.07 | M 2.71 | Q 1.65 | P -2.08 | H 1.67 | G 1.08 | I 2.02 | E 2.19 | F 1.51 | V 1.06 | C 5.95 | N 1.2 | D 0.787 | T 2.76 | S 1.69
H16: V 2.11 | E 1.41 | F 1.56 | D -1.51 | T 1.1 | G -0.623 | L 1.79 | Q 1.13 | A 1 | W 4.59 | M -0.423 | C 3.9 | N -2.34 | K 0.615 | Y 6.41 | R 2.23 | I 2.55 | S -0.276
L10: G -0.464 | C 2.63 | V -1.7 | A -1.23 | Y -1.84 | W -2.89 | M -0.724 | I 1.74 | S -4.16
E2: S 1.37 | W 6.92 | F 4.04 | L 4.53 | D 2.97 | I 4.18 | Y 4.2 | T 3.36 | P 3.43 | N 2.2 | A 5.39 | H 3.84 | M 3.58 | R 4.98 | V 5.04 | G 3.46 | Q 4.48 | K 3.12
N13: Y 2.66 | M 5.57 | Q 5.1 | I 5.47 | D 1.3 | V 1.92 | K 2.45 | F 2.36 | L 6.04 | E 2.93 | W 4.43 | S 3.72 | H 3.24 | G 1.45 | T 5.81 | R 4.18 | A 3.2
F3: G 1.04 | W 4.83 | I 1.75 | V 0.929 | Y 4.38 | E 1.01 | R -2.82 | D 1.52 | T 1.37 | L 4.37 | K 1.09 | P 0.0628 | Q 2.28 | A 2.2 | M 1.12 | N 1.71 | S 0.0795 | H 2.66
F17: R -4.1 | C -1.71 | E -2.35 | P -2.2 | G -3.95
N14: Y 4.03 | M -3.48 | S 2.26 | H -0.556 | I -0.322 | Q -1.76 | F 1.66 | D 3.49 | V -0.243 | E -1 | L -0.0377 | A -1.68 | W 4.2
R4: I 4.25 | H 3.85 | E 4.51 | L 4.89 | F 6.27 | A 5.29 | M 4.72 | K 3.86 | G 3.49 | S 4.38 | Y 5.23 | V 2.29 | W 6.21 | T 3.98 | Q 4.53 | D 4.37 | P 3.49 | N 1.61
I7: T -0.18 | A -0.774 | L 0.983 | V 1.99 | F 0.456 | C 4.76 | W 1.23 | E -2.93 | N -2.09 | R -2.73 | Y 3.36 | H -1.4 | K -3.97 | M -2.68
K19: C 5.51 | E 4.61 | D 3.44 | A 4.74
D5: F 5.7 | L 3.84 | R 3.59 | T 3.02 | K 3.77 | G 1.9 | Y 6.41 | P -0.682 | H 5.14 | M 4.12 | A 1.07 | Q 1.74 | E 3.02 | S 2.13 | N 2.62 | I 4.36 | W 6.13 | V 3.01
S8: R 5.29 | F 4.2 | V 3.28 | T 4.5 | H 2.38 | G 2.81 | D 3.99 | P -0.28 | A 6.53 | Q 4.65 | I 4.13 | K 5.08 | N 3.86 | C 6.98 | E 5.54 | M 5.84 | L 5.07 | Y 3.27 | W 4.19
P15: E 1.53 | H 1.59 | M 0.293 | F -0.0544 | L 1.41 | D 0.452 | N 0.188 | K 1.31 | G 0.201 | C 3.54 | V 1.49 | W 1.4 | I 1.3 | A 1.85 | Q 0.51 | Y -2.65 | T 1.22 | S 3.44 | R 0.121
E6: H 0.661 | P 0.167 | Y 5.94 | I 8.78 | D 3 | N 0.335 | Q -1.57 | L 7.36 | A 5.42 | T 4.75 | G -2.54 | S 1.13 | W 6.49 | K -2.08 | F 5.86 | V 6.29 | C 8.16 | R 0.979 | M 6.1
D18: W 7.42 | F 8.48 | Q 8.15 | S 6.54 | A 9.6 | R 10.3 | L 10.1 | G 4.83 | T 5.64 | N 7.27 | E 5.65 | Y 8.15 | H 6.77 | V 7.02 | I 5.98 | C 8.24 | K 9.34 | M 8.5

Variants of: B2
Assay: as above
Settings: PBS, room temperature

Folding stability dG [kJ/mol]: each site, then its substitutions
K43: W 10.4 | E 7.99 | Y 11 | P 2.95 | R 9.88 | H 9.15 | I 11 | F 11.9 | A 8.67 | Q 9.03 | L 10.8 | N 6.63 | T 10.4 | G 10.5 | M 10.7 | D 6.74 | S 9.09 | V 11.2 | C 15.3
V42: Q 1.37 | T 2.54 | K 1.62 | P 1.08 | F 8.16 | M 7.09 | S 2 | H 1.21 | R 1.19 | D 0.987 | I 8.46 | G 1.43 | W 3.84 | N 2.04 | E 1.27 | L 11.8 | Y 3.66 | C 7.48
